Assay [1] concerns the target T1, 重组人FcrRIIb (human, UniProt P31994 43-217, limits assumed).
T1 construct: Recombinant, histidine-tagged, captured on anti-penta-His biosensor; also called FcγRIIb; not shown: histidine tag
T1 sequence (looked up): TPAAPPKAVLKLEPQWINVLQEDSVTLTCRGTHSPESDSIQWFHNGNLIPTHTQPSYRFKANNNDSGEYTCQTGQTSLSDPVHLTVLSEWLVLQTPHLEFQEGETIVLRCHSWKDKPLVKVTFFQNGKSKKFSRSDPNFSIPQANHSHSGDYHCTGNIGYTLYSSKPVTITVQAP
The assay is described as follows: BLI, His-tagged Fc receptor captured on anti-penta-His biosensor, antibody in solution. In general terms: BLI is a label-free optical method that tracks binding on a fibre tip over time.

Assay [2] concerns the target KIT (野生型KIT, M-07e细胞) (UniProt P10721 26-976, limits assumed). In words: cell-based or functional assay.
Assay [3] has as its target T2, 重组人FcrRIIIb (human, UniProt O75015 17-200).
T2 construct: Recombinant, histidine-tagged, captured on anti-penta-His biosensor; also called FcγRIIIb; not shown: histidine tag
The assay is described as follows: BLI, His-tagged Fc receptor captured on anti-penta-His biosensor, antibody in solution.

For assay [4], the target named is T3, 重组人FcrRI (human, UniProt P12314 16-288, limits assumed).
T3 construct: Recombinant, histidine-tagged, captured on anti-penta-His biosensor; also called FcγRI; FcgRI; not shown: histidine tag
The description is as above.

Assay [5] addresses T4, 重组人FcrRIIa (human, UniProt P12318 36-218, limits assumed).
T4 construct: Recombinant, histidine-tagged, captured on anti-penta-His biosensor; also called FcγRIIa; not shown: histidine tag
T4 sequence (looked up): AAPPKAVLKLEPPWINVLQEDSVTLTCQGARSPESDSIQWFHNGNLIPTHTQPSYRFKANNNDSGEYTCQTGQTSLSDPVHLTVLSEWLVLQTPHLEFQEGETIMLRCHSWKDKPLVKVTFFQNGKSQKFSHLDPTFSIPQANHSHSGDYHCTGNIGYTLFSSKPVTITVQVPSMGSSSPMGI
The assay is described as above.

For assay [6], the target named is T5, 重组人FcrRIIIa (human, UniProt P08637 17-208).
T5 construct: Recombinant, histidine-tagged, captured on anti-penta-His biosensor; also called FcγRIIIa; not shown: histidine tag
The description is as above.

T5 sequence (P08637 17-208 limits assumed): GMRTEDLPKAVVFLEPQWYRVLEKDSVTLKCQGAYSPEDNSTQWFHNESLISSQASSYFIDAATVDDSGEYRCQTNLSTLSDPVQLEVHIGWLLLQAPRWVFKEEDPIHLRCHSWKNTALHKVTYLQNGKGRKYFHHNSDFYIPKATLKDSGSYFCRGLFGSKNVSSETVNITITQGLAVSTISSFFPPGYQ
T3 sequence (P12314 16-288 limits assumed): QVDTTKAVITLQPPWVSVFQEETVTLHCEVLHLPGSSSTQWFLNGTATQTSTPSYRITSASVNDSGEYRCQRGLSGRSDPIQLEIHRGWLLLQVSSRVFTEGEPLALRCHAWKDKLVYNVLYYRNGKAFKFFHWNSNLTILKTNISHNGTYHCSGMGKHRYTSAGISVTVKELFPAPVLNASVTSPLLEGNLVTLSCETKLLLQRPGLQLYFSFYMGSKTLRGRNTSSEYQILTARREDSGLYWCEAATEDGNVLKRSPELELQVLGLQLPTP
T2 sequence (O75015 17-200 limits assumed): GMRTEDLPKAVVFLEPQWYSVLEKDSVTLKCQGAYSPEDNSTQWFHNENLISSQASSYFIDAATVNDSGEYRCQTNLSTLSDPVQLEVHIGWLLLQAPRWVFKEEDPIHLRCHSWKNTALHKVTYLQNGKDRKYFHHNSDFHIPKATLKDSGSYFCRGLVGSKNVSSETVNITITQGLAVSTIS
KIT (野生型KIT, M-07e细胞), sequence (P10721 26-976 limits assumed): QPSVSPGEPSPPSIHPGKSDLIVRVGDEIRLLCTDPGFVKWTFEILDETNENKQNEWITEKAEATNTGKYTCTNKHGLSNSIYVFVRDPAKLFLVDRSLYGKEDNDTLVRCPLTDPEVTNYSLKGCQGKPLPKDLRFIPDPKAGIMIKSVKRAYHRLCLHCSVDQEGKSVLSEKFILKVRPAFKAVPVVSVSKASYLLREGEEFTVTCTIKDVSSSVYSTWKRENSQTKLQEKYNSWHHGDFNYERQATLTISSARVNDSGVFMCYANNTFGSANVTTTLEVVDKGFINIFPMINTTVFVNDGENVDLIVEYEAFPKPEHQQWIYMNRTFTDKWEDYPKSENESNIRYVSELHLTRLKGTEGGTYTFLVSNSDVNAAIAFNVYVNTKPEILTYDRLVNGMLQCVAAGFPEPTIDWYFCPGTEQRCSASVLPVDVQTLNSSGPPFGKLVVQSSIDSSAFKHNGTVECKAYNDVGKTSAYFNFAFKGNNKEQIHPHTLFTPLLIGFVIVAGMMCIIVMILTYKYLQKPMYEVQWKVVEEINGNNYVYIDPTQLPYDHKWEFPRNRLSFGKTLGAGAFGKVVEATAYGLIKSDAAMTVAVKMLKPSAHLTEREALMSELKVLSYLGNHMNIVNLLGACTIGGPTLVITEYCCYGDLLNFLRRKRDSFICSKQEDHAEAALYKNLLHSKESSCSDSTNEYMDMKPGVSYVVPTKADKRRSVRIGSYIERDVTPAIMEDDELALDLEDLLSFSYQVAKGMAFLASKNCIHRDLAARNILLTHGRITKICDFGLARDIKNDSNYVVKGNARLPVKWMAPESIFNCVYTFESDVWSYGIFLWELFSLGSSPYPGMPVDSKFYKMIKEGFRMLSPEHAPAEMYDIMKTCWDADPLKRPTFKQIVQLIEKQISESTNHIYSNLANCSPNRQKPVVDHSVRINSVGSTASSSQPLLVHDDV

B1: mAbc (antibody)
VH: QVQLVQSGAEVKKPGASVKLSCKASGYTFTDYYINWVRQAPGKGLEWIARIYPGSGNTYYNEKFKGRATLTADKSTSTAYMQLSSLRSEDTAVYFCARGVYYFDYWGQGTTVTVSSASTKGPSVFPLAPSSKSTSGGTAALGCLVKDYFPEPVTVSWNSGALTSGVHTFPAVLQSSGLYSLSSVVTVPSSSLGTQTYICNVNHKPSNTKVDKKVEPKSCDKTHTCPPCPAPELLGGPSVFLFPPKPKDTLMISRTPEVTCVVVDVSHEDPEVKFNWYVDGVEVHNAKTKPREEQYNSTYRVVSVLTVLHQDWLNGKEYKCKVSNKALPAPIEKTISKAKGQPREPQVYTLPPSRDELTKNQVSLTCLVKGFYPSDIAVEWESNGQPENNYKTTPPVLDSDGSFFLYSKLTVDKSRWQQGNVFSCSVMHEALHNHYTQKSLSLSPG
VL: DIVMTQSPSSLSASVGDRVTITCKASQNVRTNVAWYQQKPGKAPKALIYSASYRYSGVPDRFTGSGSGTDFTLTISSLQPEDFADYFCQQYNSYPRTFGGGTKVEIKRTVAAPSVFIFPPSDEQLKSGTASVVCLLNNFYPREAKVQWKVDNALQSGNSQESVTEQDSKDSTYSLSSTLTLSKADYEKHKVYACEVTHQGLSSPVTKSFNRGEC
notes: also called 具有相同可变区序列但是未突变的(野生型)人IgG1序列的相应抗体; 具有野生型(未突变)IgG1 Fc域的相应抗体; copies: 2 + 2
Turning to B1, the binding result in assay [1] is “no binding”.

B2: mAb1 (antibody, human IgG1, kappa)
heavy: QVQLVQSGAEVKKPGASVKLSCKASGYTFTDYYINWVRQAPGKGLEWIARIYPGSGNTYYNEKFKGRATLTADKSTSTAYMQLSSLRSEDTAVYFCARGVYYFDYWGQGTTVTVSSASTKGPSVFPLAPSSKSTSGGTAALGCLVKDYFPEPVTVSWNSGALTSGVHTFPAVLQSSGLYSLSSVVTVPSSSLGTQTYICNVNHKPSNTKVDKKVEPKSCDKTHTCPPCPAPEAQGGPSVFLFPPKPKDTLYITREPEVTCVVVDVSHEDPEVKFNWYVDGVEVHNAKTKPREEQYNSTYRVVSVLTVLHQDWLNGKEYKCQVSNKALPAPIEKTISKAKGQPREPQVYTLPPSRDELTKNQVSLTCLVKGFYPSDIAVEWESNGQPENNYKTTPPVLDSDGSFFLYSKLTVDKSRWQQGNVFSCSVMHEALHNHYTQKSLSLSPG
light: DIVMTQSPSSLSASVGDRVTITCKASQNVRTNVAWYQQKPGKAPKALIYSASYRYSGVPDRFTGSGSGTDFTLTISSLQPEDFADYFCQQYNSYPRTFGGGTKVEIKRTVAAPSVFIFPPSDEQLKSGTASVVCLLNNFYPREAKVQWKVDNALQSGNSQESVTEQDSKDSTYSLSSTLTLSKADYEKHKVYACEVTHQGLSSPVTKSFNRGEC
notes: also called 抗-KIT抗体mAb1; Fc突变的抗-KIT抗体; copies: 2 + 2
Consider B2, for which the “SCF-依赖性M-07e细胞增殖的抑制, 平均IC50” value in assay [2] came to 1.11 nM. For the same molecule, the binding result in assay [3], in assay [4], in assay [5], in assay [1] and in assay [6] was “no binding (tested: 500nM)” throughout.
